Reference: patent US20210047395A1 (Hoffmann-La Roche, published 2021)

Columns and labels:
[1] = target: T1, VEGF-121-His (inhouse production) (human, UniProt P15692 207-395); assay: VEGF:VEGF-R1 inhibition ELISA (Example 4, as Example 2): 0.34 nM VEGF-121-His pre-incubated with the Fab, then added to plate-bound biotinylated VEGF-R1, anti-His POD detection; blocked partner: VEGF-R1
T1 construct: Treated as one molecule; also called hVEGF-A121; not shown: His tag
T1 sequence: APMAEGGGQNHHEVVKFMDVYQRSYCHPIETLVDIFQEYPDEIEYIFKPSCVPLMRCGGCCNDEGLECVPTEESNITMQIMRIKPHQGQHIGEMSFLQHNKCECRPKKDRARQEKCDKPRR

[2] = target: T1, VEGF-121-His (inhouse production); assay: VEGF:VEGF-R1 inhibition ELISA (Example 4, as Example 2): 0.7 nM VEGF-121-His pre-incubated with the Fab, then added to plate-bound biotinylated VEGF-R1, anti-His POD detection; blocked partner: VEGF-R1
Protocol: Plates were incubated for 1 h at room temperature. […] Plates were incubated for 1 h at room temperature. […] After washing 3 times with 90 μl/well PBST-buffer, 25 μl/well detection antibody (anti His POD, Bethyl, #A190-114P, 1:12000) in 1×OSEP was added. After incubation for 1 h at room temperature plates were washed 3 times with 90 μl PBST-buffer. 25 μl TMB (Roche, #11 835 033 001) was added to all wells simultaneously. After 10 min incubation at room temperature, signals were detected at 370 nm/492 nm on a Tecan Safire 2 Reader.

[3] = target: T1, VEGF-121-His (inhouse production); assay: SPR, hVEGF-A121 captured by anti-His antibody, 37 C
Protocol: (§1) An anti-His capturing antibody (GE Healthcare 28995056) was immobilized to a Series S Sensor Chip C1 (GE Healthcare 29104990) using standard amine coupling chemistry resulting in a surface densitiy of 500-1000 resonance units (RU). […] The surface was regenerated by injecting 10 mM Glycine pH 1.5 for 60 s. […] Rate constants were calculated using the Langmuir 1:1 binding model within the Biacore Evaluation software.
(§2) The affinity of the antibodies was determined by SPR using the same methods as described in Example 2.

[4] = target: T2, VEGF (as used in the Biacore active concentration test of Example 6) (Homo sapiens (Human), UniProt P15692 27-147, VEGF is a disulfide-linked homodimer; one protomer is given); assay: Biacore, normalized to unstressed aliquot; Fab stressed 2 w/37 C/pH 7.4
T2 sequence: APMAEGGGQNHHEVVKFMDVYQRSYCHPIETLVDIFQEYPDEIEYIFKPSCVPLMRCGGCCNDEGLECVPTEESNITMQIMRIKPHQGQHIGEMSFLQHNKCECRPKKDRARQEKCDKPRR
Protocol: (§3) Antibody samples were formulated in 20 mM His/HisCl, 140 mM NaCl, pH 6.0, and were split into three aliquots: one aliquot was re-buffered into PBS, respectively, and two aliquots were kept in the original formulation. The PBS aliquot and one His/HisC1 aliquot were incubated for 2 weeks (2 w) at 40° C. (His/NaCl) or 37° C. (PBS) in 1 mg/ml, the PBS sample was incubated further for total 4 weeks (4 w). The third control aliquot sample was stored at −80° C.

[5] = target: T2, VEGF (as used in the Biacore active …); assay: Biacore, normalized to unstressed aliquot; Fab stressed 4 w/37 C/pH 7.4
Protocol: as §3

[6] = target: T1, VEGF-121-His (inhouse production); assay: SPR, hVEGF-A121 captured by anti-His antibody, 25 C
Protocol: as §1, §2

[7] = target: T2, VEGF (as used in the Biacore active …); assay: Biacore, normalized to unstressed aliquot; Fab stressed 2 w/40 C/pH 6.0
Protocol: as §3

B1: VEGF-P1AD8674 Fab (Fab, V domains shown)
VH: EVQLVESGGGLVQPGGSLRLSCAASGFTFTNYAMTWVRQAPGKGLEWVSSIGNGGGIYTYYADSVKGRFTISRNNAENTLYLQMNSLRAEDTAVYYCAKGDNLFDSWGPGTLVTVSS
VL: DIQMTQSPASLSASVGDRVTITCRASQSIYSSLNWYQQKPGKAPKLLIYASTLQSGVPSRFSGSASGTDFTLTISSLQPEDVATYYCQQYQNFPRTFGQGTKLEIKR
binding result [1]: binds

B2: VEGF-0112 Fab (Fab, V domains shown)
VH: EVQLVESGGGLVQPGGSLRLSCAASGFTFTNYAMTWVRQAPGKGLEWVSSIGSGGGIYTYYADSVKGRFTISRDNSKNTLYLQMNSLRAEDTAVYYCAKGDNLFDSWGPGTLVTVSS
VL: DIQMTQSPASLSASVGDRVTITCRASQSIYSSLNWYQQKPGKAPKLLIYASTLQSGVPSRFSGSASGTDFTLTISSLQPEDVATYYCQQYQNFPRTFGQGTKLEIKR
binding result [2]: binds

B3: VEGF-P1AE3519 Fab (Fab, V domains shown)
VH: EVQLVESGGGLVQPGGSLRLSCAASGFTFTNYAMTWVRQAPGKGLEWVSSIGSGGGIYTYYADSVKGRFTISRDNWKNTLYLQMNSLRAEDTAVYYCAKGDNLFDSWGPGTLVTVSS
VL: DIQMTQSPASLSASVGDRVTITCRASQSIYSSLNWYQQKPGKAPKLLIYASTLQSGVPSRFSGSASGTDFTLTISSLQPEDVATYYCQQYQNFPRTFGQGTKLEIKR
notes: Control variant of VEGF-0089 with N52aS in H-CDR2 and S74W in H-FR3 (Kabat)
Kd [3]: 0.094 nM | VEGF-binding activity after stress (relative active concentration) [4]: 102 | VEGF-binding activity after stress (relative active concentration) [5]: 102 | Kd [6]: 0.119 nM | VEGF-binding activity after stress (relative active concentration) [7]: 102
